Assay in all cases: FRET or BRET
(Bioluminescence resonance energy transfer reports proximity on the nanometre scale.)

For one experiment, the target named is T1, CFP-Rem(224-297) (mouse, UniProt O35929 224-297).
T1 sequence (looked up): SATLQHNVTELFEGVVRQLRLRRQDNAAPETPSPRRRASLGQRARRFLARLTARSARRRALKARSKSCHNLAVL

The target of the next experiment is T2, CFP-Rem(1-285) (mouse, UniProt O35929 1-285).
T2 sequence (looked up): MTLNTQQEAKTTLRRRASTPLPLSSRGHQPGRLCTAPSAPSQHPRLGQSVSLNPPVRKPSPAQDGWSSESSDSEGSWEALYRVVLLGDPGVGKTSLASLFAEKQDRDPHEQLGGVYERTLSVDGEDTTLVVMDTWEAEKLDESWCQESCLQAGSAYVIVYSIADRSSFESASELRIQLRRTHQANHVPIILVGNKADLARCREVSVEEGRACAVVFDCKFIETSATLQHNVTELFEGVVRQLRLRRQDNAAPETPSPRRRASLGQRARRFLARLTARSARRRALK

Another experiment has as its target T3, CFP-Rem(1-275) (mouse, UniProt O35929 1-275).
T3 sequence (looked up): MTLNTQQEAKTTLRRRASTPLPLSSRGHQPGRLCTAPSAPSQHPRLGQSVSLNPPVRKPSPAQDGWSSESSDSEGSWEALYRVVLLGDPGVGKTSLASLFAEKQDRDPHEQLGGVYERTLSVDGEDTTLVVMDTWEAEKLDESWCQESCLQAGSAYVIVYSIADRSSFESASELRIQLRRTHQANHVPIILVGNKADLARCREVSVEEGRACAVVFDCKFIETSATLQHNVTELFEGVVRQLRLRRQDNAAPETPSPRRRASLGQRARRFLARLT

FRET efficiency data for one molecule are collected here from PMC4988437 (Channels, 2016).

B1: YFP-tagged alpha1C N-terminus (domain or fragment)
chain: not shown
For B1, the FRET efficiency with CFP-Rem(224-297) turned out to be 0.439; with CFP-Rem(1-285), 0.071; in the experiment with CFP-Rem(1-275), 0.04.
